Assay results as given in paper PMC3572902.

Key:
[1] = molecular target: recombinant gp120 REJO4541 (HIV-1); experiment: ELISA
[2] = molecular target: fusion protein V1V2_(Case-A2)-gp70 (HIV-1); experiment: ELISA
[3] = molecular target: Env of pseudovirus SF162.LS (HIV-1)
[4] = molecular target: Env of pseudovirus MW965.26 (HIV-1)
[5] = molecular target: Env of pseudovirus DJ263.8 (HIV-1)
[6] = molecular target: Env of pseudovirus HXB2.DG (HIV-1) (UniProt P04578)
[7] = molecular target: Env of pseudovirus SS1196.1 (HIV-1)
[8] = molecular target: recombinant gp120 JR-FL (HIV-1); experiment: ELISA
[9] = molecular target: recombinant gp120 ZM53M (HIV-1); experiment: ELISA
[10] = molecular target: Env of pseudovirus Bx08.16 (HIV-1)
[11] = molecular target: Env of pseudovirus BaL.26 (HIV-1)
[12] = molecular target: Env of pseudovirus 6535.3 (HIV-1)
[13] = molecular target: recombinant gp120 MSC5007 (HIV-1); experiment: ELISA

human anti-V2 monoclonal antibody 2297
O.D. (ELISA, mAb at 10 μg/ml) [1]: 4 O.D.
percent inhibition of the binding of biotinylated 697 to V1V2-gp70 [2]: 47%

human anti-V2 monoclonal antibody 1393A
IC50 of neutralisation of pseudovirus SF162.LS (TZM-bl cell assay) [3]: 12.5 µg/mL
IC50 of neutralisation of pseudovirus MW965.26 (TZM-bl cell assay) [4]: 0.8 µg/mL
IC50 of neutralisation of pseudovirus DJ263.8 (TZM-bl cell assay) [5]: 11.1 µg/mL
IC50 of neutralisation of pseudovirus HXB2.DG (TZM-bl cell assay) [6]: 19.8 µg/mL
IC50 of neutralisation of pseudovirus SS1196.1 (TZM-bl cell assay) [7]: 88.7 µg/mL
O.D. (ELISA, mAb at 10 μg/ml) [8]: 4 O.D.

human anti-V2 monoclonal antibody 2158
IC50 of neutralisation of pseudovirus SF162.LS (TZM-bl cell assay) [3]: 6.4 µg/mL
IC50 of neutralisation of pseudovirus MW965.26 (TZM-bl cell assay) [4]: 0.8 µg/mL
IC50 of neutralisation of pseudovirus HXB2.DG (TZM-bl cell assay) [6]: 17.8 µg/mL
IC50 of neutralisation of pseudovirus SS1196.1 (TZM-bl cell assay) [7]: 27.6 µg/mL

human anti-V2 monoclonal antibody 1357
IC50 of neutralisation of pseudovirus SF162.LS (TZM-bl cell assay) [3]: 33.5 µg/mL
IC50 of neutralisation of pseudovirus MW965.26 (TZM-bl cell assay) [4]: 0.8 µg/mL
IC50 of neutralisation of pseudovirus DJ263.8 (TZM-bl cell assay) [5]: 29.2 µg/mL
IC50 of neutralisation of pseudovirus HXB2.DG (TZM-bl cell assay) [6]: 36.9 µg/mL
O.D. (ELISA, mAb at 10 μg/ml) [8]: 4 O.D.

human anti-V2 monoclonal antibody 1361
IC50 of neutralisation of pseudovirus SF162.LS (TZM-bl cell assay) [3]: 5.4 µg/mL
IC50 of neutralisation of pseudovirus MW965.26 (TZM-bl cell assay) [4]: < 0.4 µg/mL
IC50 of neutralisation of pseudovirus DJ263.8 (TZM-bl cell assay) [5]: 11.8 µg/mL
IC50 of neutralisation of pseudovirus HXB2.DG (TZM-bl cell assay) [6]: 18.6 µg/mL
IC50 of neutralisation of pseudovirus SS1196.1 (TZM-bl cell assay) [7]: 23.8 µg/mL
O.D. (ELISA, mAb at 10 μg/ml) [9]: 4 O.D.

human anti-V2 monoclonal antibody 697
O.D. (ELISA, mAb at 10 μg/ml) [8]: 4 O.D.

human anti-V2 monoclonal antibody 830A
IC50 of neutralisation of pseudovirus SF162.LS (TZM-bl cell assay) [3]: 6.2 µg/mL
IC50 of neutralisation of pseudovirus MW965.26 (TZM-bl cell assay) [4]: < 0.4 µg/mL
IC50 of neutralisation of pseudovirus Bx08.16 (TZM-bl cell assay) [10]: > 50 µg/mL
IC50 of neutralisation of pseudovirus BaL.26 (TZM-bl cell assay) [11]: 36.1 µg/mL
IC50 of neutralisation of pseudovirus HXB2.DG (TZM-bl cell assay) [6]: > 50 µg/mL
IC50 of neutralisation of pseudovirus 6535.3 (TZM-bl cell assay) [12]: > 50 µg/mL
IC50 of neutralisation of pseudovirus SS1196.1 (TZM-bl cell assay) [7]: > 50 µg/mL
O.D. (ELISA, mAb at 10 μg/ml) [13]: 4 O.D.

B1: human anti-V2 monoclonal antibody 697 (antibody, V domains shown)
VH: QVQLVQSGAEVKKPGSSVKVSCKASGGNFNTYTISWVRQAPGQGLEWMGRIIPIFGIVNPAQKFPGRVTINVDKSTNTAYMELSSLRSEDTAVYYCATSGVGLHFGYFDYWGQGTQVTVSS
VL: QSVLTQPPSVSGAPGQRVTISCTGSSSNIGAHYDVHWYQQLPGTAPKLLIYGNSNRPSGVPDRFSGSKSGTSASLAITGLQAEDEADYYCQSYDSSLSGYVFGTGTKVTVL
IC50 of neutralisation of pseudovirus SF162.LS (TZM-bl cell assay) [3]: 19.9 µg/mL
IC50 of neutralisation of pseudovirus MW965.26 (TZM-bl cell assay) [4]: 1.8 µg/mL
IC50 of neutralisation of pseudovirus Bx08.16 (TZM-bl cell assay) [10]: 11.2 µg/mL
IC50 of neutralisation of pseudovirus BaL.26 (TZM-bl cell assay) [11]: 20.2 µg/mL
IC50 of neutralisation of pseudovirus DJ263.8 (TZM-bl cell assay) [5]: 38.6 µg/mL
IC50 of neutralisation of pseudovirus SS1196.1 (TZM-bl cell assay) [7]: 16.8 µg/mL
